Measurements: patent US20220228157A1, “GENE EDITING IN DIVERSE BACTERIA” (priority 2019, published 2022)

How the values were obtained:
[1] = tested on: 90 bp oligos pre-coated with SSB; assay: Oligonucleotide annealing and quenching in vitro; type: biochemical; conditions: two 90 bp oligos pre-coated with SSB
From the text: It was first whether two 90 bp oligos could anneal if they were pre-coated with SSB. SSBs was purified from E. coli (gram-negative), where most recombineering work has been performed, and L. lactis (gram-positive), a lactic acid bacterium phylogenetically distantly related to E. coli. […] It was next tested capacity of a phage RecT protein to overcome this SSB-mediated inhibition of annealing. Thus, Redβ, which is not broadly portable, but mediates efficient oligonucleotide annealing in E. coli, was purified. […] These preliminary results gave us an indication that while bacterial SSBs inhibit oligonucleotide annealing in vitro, RecTs overcome the inhibitory effect in an SSB-specific manner.
Fluorescent (tolC-r.null.mut-3′FAM) and quenching (tolC-f.null.mut-5′IBFQ) oligos were ordered from Integrated DNA Technologies. Unless otherwise indicated, 50 nM of each oligo was incubated in 25 mM TRIS-HCl pH 7.4 with 1.0 μM Ec_SSB or Ll_SSB at 30° C. for 30 minutes. 100 μl of each oligo mixture were then combined into a 96-well clear-bottom black assay plate (Costar), incubated a further 60 minutes at 30° C., and annealing was tracked on a Synergy H4 microplate reader (BioTek) with fluorescence excitation set to 495 nm and emission set to 520 nm. After 60 minutes, 20 μl of a solution with or without 25 μM Redβ and containing 100 mM MgCl2 was added to achieve a final reaction concentration of 2.5 μM Redβ and 10 mM MgCl2. The annealing was then tracked over 10 hours in a the Synergy H4 microplate reader with the setting indicated above.

[2] = molecular target: L. lactis single-stranded binding protein (LlSSB) (L. lactis) (UniProt Q9CDM9); assay: cell-based or functional assay
[3] = molecular target: PaSSB (Pseudomonas aeruginosa single-stranded binding protein) (Pseudomonas aeruginosa) (UniProt P40947); assay: cell-based or functional assay; conditions: scale: fold improved over the RecT protein alone
[4] = tested on: E. coli; assay: Allelic recombination frequency, selective vs non-selective plates; type: cell-based, Escherichia coli; conditions: RecT alone
Procedure: (§1) Four variants known to enable high genome editing efficiency were selected (Redβ and PapRecT in E. coli, LrpRecT in L. lactis, and MspRecT in M. smegmatis), and tested codon optimized versions of all four in both E. coli (gram-negative), and L. lactis (gram-positive). Genome editing efficiency was measured by introducing oligos encoding known antibiotic resistance mutations, and compared the antibiotic resistant cell counts to the total number of viable cells in the population (FIGS. 17E-17F). […] In L. lactis, LrpRecT was the only functional homolog, and improved oligo incorporation 7,700-fold, while the three other RecT variants were nearly non-functional, improving oligo incorporation less than 7-fold (FIG. 17H). No RecT protein functioned well both in E. coli and L. lactis.
A single colony of E. coli was grown overnight to saturation. In the morning 30 μL of dense culture was inoculated into 3 mL of fresh media and grown for 1 hour. To induce gene expression of the pARC8 vector for recombineering experiments, L-arabinose was added to a final concentration of 0.2% (w/v) and the cells were grown an additional hour. 1 mL of cells were pelleted at 4° C. by centrifugation at 12,000×g for 2.5 minutes and washed twice with 1 mL of ice-cold dH2O. Cells were resuspended in 50 μL ice-cold dH2O containing DNA and transferred to a pre-chilled 0.1 cm electroporation cuvette.
(§2) Electrocompetent cells were electroporated with 90-mer oligos at: 1 uM for E. coli, 50 μg for L. lactis, and 10 uM for C. crescentus. 70-mer oligos were used at 1 μg for M. smegmatis. All oligos were obtained from IDT and can be found under “Oligonucleotides for genome editing” in materials and methods. For dsDNA experiments L. lactis was electroporated with 1.5 μg purified linear dsDNA. Cells were electroporated using a Bio-Rad gene pulser set to 25 μF, 200 S2, and 1.8 kV for E. coli, 2.0 kV for L. lactis, and 1.5 kV for C. crescentus and to 1000Ω and 2.5 kV for M. smegmatis. Immediately after electroporation, cells were recovered in fresh media for 3 hours for E. coli, 1 hour for L. lactis, overnight for M. smegmatis and overnight for C. crescentus. L. lactis recovery media was supplemented with MgCl2 and CaCl2) at a concentration of 20 mM and 2 mM, respectively. E. coli recovery media was supplemented with carbenicillin. M. smegmatis recovery media was supplemented with hygromycin. C. crescentus recovery media was supplemented with 0.3% xylose and kanamycin. After recovery, the cells were serial diluted and plated on non-selective vs. selective agar plates to obtain approximately 50-500 CFU/plate. Colonies were counted using a custom script in Fiji, and allelic recombination frequency was calculated by dividing the number of colonies on selective plates, with the number of colonies on non-selective plates.

[5] = tested on: L. rhamnosus; type: cell-based
Procedure: Finally, the model for RecT was used to establish recombineering in L. rhamnosus, a well-studied probiotic used to treat a variety of illnesses including diarrhea and bacterial vaginosis. Although the L. rhamnosus SSB and L. lactis SSB only have 47% identity, they share identical SSB C-terminal tail 7 amino acids. It was determined whether LrpRecT (which functions in L. lactis) is portable to L. rhamnosus, while the other RecT proteins would not be functional.

[6] = tested on: L. lactis; assay: Allelic recombination frequency, selective vs non-selective plates; type: cell-based, Lactococcus lactis; conditions: RecT alone
Procedure: as §1
A single colony of L. lactis was grown overnight to saturation. 500 μL of dense culture was inoculated into 5 mL of fresh media, supplemented with 500 mM sucrose and 2.5% (w/v) glycine, and grown for 3 hours. To induce gene expression of the pJP005 vector for recombineering experiments, the cells were grown for an additional 30 min after adding 1 ng/mL freshly diluted nisin, unless stated otherwise. For the optimized condition (FIG. 20B), 10 ng/mL nisin was used. Cells were pelleted at 4° C. by centrifugation at 5,000×g for 5 minutes and washed twice with 2 mL of ice-cold electroporation buffer (500 mM sucrose containing 10% (w/v) glycerol) by centrifugation at 13,200×g for 2.5 minutes. Cells were resuspended in 80 μL ice-cold electroporation buffer containing DNA and transferred to a pre-chilled 0.1 cm electroporation cuvette.
as §2

[7] = tested on: Agrobacterium tumefaciens; assay: SSAP candidate enrichment; type: cell-based
Procedure: (§3) The editing efficiency of SSAP candidates was also tested in Agrobacterium tumefaciens and in Staphylococcus aureus using the methods described above.

[8] = tested on: Staphylococcus aureus; assay: SSAP candidate enrichment; type: cell-based
Procedure: as §3

## EcSSB: single-stranded binding protein from E. coli [reference compound]
[1]
  Effect of SSB on oligonucleotide annealing: completely inhibited oligonucleotide annealing

## MspRecT
[2]
  genome editing efficiency in L. lactis (fold lower than the cognate pair): 33

## PapRecT
[2]
  genome editing efficiency in L. lactis (fold less than the cognate pair): 135
[3]
  editing efficiency in L. lactis, pair against the RecT protein alone: 1170

B1: L1SSB: single-stranded binding protein from L. lactis (protein)
chain: MINNVVLVGRITRDPELRYTPQNQAVATFSLAVNRQFKNANGEREADFINCVIWRQQAENLANWAKKGALIGVTGRIQTRNYENQQGQRVYVTEVVADSFQMLESRSARDGMGGGASAGSYSAPSQSTNNTPRPQTNNNSATPNFGRDADPFGSSPMEISDDDLPF
[1]
  Effect of SSB on oligonucleotide annealing: completely inhibited oligonucleotide annealing

B2: MspRecT: RecT variant known to enable high genome editing efficiency in M. smegmatis (protein)
chain: MAENAVTKQDSPKAPETISQVLQVLVPQLARAVPKGMDPDRIARIVQTEIRKSRNAKAAGIAKQSLDDCTQESFAGALLTSAALGLEPGVNGECYLVPYRDTRRGVVECQLIIGYQGIVKLFWQHPRASRIDAQWVGANDEFHYTMGLNPTLKHVKAKGDRGNPVYFYAIVEVTGAEPLWDVFTADEIRELRRGKVGSSGDIKDPQRWMERKTALKQVLKLAPKTTRLDAAIRADDRPGTDLSQSQALALPSTVKPTADYIDGEIAEPHEVDTPPKSSRAQRAQRATAPAPDVQMANPDQLKRLGEIQKAEKYNDADWFKFLADSAGVKATRAADLTFDEAKAVIDMFDGPNA
[4]
  Improvement of oligo incorporation: 290 fold
[5]
  Toxicity in L. rhamnosus: toxic

B3: LrpRecT: RecT variant known to enable high genome editing efficiency in L. lactis (protein)
chain: MANQVAQQQKPTKLTDLVLDRVKQMQDTQDLSLPKNYNASNALNAAFLELQKVQDRNHRPALEVCSHDSIVKSLLDMTLQGLSPAKDQCYFIVYGNELQMQRSYFGTVAAVKRLDGVKKVRAEVVHEKDDFEIGANEDMELVVKRFVPKFENQDNQIIGAFAMIKTDEGTDFTVMTKKEIDQSWAQTRQKNNKVQQNFSQEMAKRTVLNRAAKMFINTSDDSDLLTGAINDTTSNEYDDERRDVTPVEDEKQSTDKLLEGFQKSQEAKAKWVSNDGNSNEGKETSEEVADGQTELFSEGTIKPADEADS
[6]
  Improvement of oligo incorporation: 7,700 fold
[4]
  Improvement of oligo incorporation: 5.6 fold
[5]; L. rhamnosus
  Oligonucleotide incorporation: three orders of magnitude above the background level

B4: PF071: SSAP candidate (protein)
chain: MALTPGLVTLNHAKIMSNESTDKLDLPQAPVPKKTLYEIVMSEDVKTHITQFVEGMMTPERCISIFWNCCQKTPLLQQCAPITLISSLKNLLLMRCEPDGIHGYLVPFWVNDKRTGNSILTCAPVPSARGLMRMARSNGVTNLNIGIVREGEPFSWRLDDGKFTMGHIPGWGDNEDPIRGFYCTWTDKDSYLHGERMSLKAVEEIKGRSKSKNKKGEIVGPWVTDFGQMGLKTVIKRASKQWDLPLVIQAAMQAADDQEFEGNMRNVTPEKTDGPAEGETPWNNAPAPEAFQNDQPEALPEPKPEGQDDLIPGLKMPAPKETATVNMEDY
modifications: Akkermansia sp KLE1798
notes: SSAP candidate
[7]
  Editing efficiency (enrichment) relative to other SSAP candidates: increase in editing efficiency

B5: PF076: SSAP candidate (protein)
chain: MTGPELAAAAKQTAQQAGSATVKKFFEANRGTLEALLPRHFDSERMLKLALGALRTTPKLANASLSSLLGSVVTCAQLGLEPNTPLGHAYLLPFDKREKQNGQWVTVETQVQVIIGYKGMLDLARRSGQIVSIAAHEVCQNDEFVFAYGLNEELVHRPAMKDRGPVIGFYAVAKLTGGGYSFEFMSVDEVNHIRDKAAEKNRAKRDAAGNPIITGPWADNYVEMGRKTVLRRLFKYLPISIESLAFASAVDGQAIREPAPLEQVAFESSEPAEEPTSYDQQDEDLRALEQSQPARVPPVQVEQPAEAWQPSAEEAAELERQQAAEAAADQQRASAPRGRGQRSMSLE
modifications: Methyloversatilis universalis (strain ATCC BAA-1314 / JCM 13912 /FAM5)
notes: SSAP candidate
[7]
  Editing efficiency (enrichment) relative to other SSAP candidates: increase in editing efficiency

B6: PF074: SSAP candidate (protein, listed as Rhizobium loti)
chain: MMNAITTYTHSPRQLALIQKTVAKDCNTDEFNLFVEVARAKGLDPFLGQIIPMIFSKGDSNKRKMTIIISRDGQRVIAQRCGDYRPASKPPSYEFDAELKSETNPQGIVSATVYLWKQDAKTAAWFEVAGQSYWDEFAPISYPYDAYKMVDTGETWEDSGKPKKKRVLRDGATPQLDDSGNWCRMPRLMIAKCAEMQALRAGWPEQFTGLYDEAEMDRAKVLEMAASEIVAHEQEENRLRLVAGNDAITMSWGDGWALENVPAGEFMDRCLAFIRESDHQTVVKWNSANRAGLQLFWAKHPGDALELKKAIEKASRAPVEIDHIADAARREIAQHPVSAG
[7]
  Editing efficiency (enrichment) relative to other SSAP candidates: increase in editing efficiency

B7: N003: SSAP candidate (protein, listed as Escherichia coli)
chain: MTKQPPIAKADLQKTQGNRAPAAVKNSDVISFINQPSMKEQLAAALPRHMTAERMIRIATTEIRKVPALGNCDTMSFVSAIVQCSQLGLEPGSALGHAYLLPFGNKNEKSGKKNVQLIIGYRGMIDLARRSGQIASLSARVVREGDEFSFEFGLDEKLIHRPGENEDAPVTHVYAVARLKDGGTQFEVMTRKQIELVRSLSKAGNNGPWVTHWEEMAKKTAIRRLFKYLPVSIEIQRAVSMDEKEPLTIDPADSSVLTGEYSVIDNSEE
[7]
  Editing efficiency (enrichment) relative to other SSAP candidates: increase in editing efficiency

B8: SR063: SSAP candidate (protein)
chain: MHLIHQSGEVKMQLSPETNEILPALFNARNKFAKAKKDAKNNHLKNSYATLDAMMAAVSPALTDNDIMILQSMLDTSTETTFHLETMLIHKSGQWAKFFMMMPIAKRDPQGVGSAMTYARRYSLAAALGISQSDDDAQLAVKSVKDWKKELDACEDIESLKDVWANAYRQTDTASKSIIQDHYNALKAKFEIGKARGIRPAQPEQKKQVEATSAKPVQSQSITNFE
modifications: Bacteriophage T1
notes: SSAP candidate
[8]
  Editing efficiency (enrichment) relative to other SSAP candidates: increase in editing efficiency
